Data reported in patent publication US20170016905A1 (VAR2 PHARMACEUTICALS, published 2017).

Biological target: T1, CSPG (bovine) (D8428, Sigma) (bovine, UniProt P21793 31-360, carries chondroitin sulfate A (CSA) glycosaminoglycan chain(s); the filing attributes the binding of VAR2CSA to this glycan)
T1 construct: also called chondroitin sulfate proteoglycan; CSA proteoglycan
Test: quartz crystal microbalance (Attana A100); legend: N/A = no KD value could be determined, due to a lack of binding to CSA

T1 sequence (P21793 31-360): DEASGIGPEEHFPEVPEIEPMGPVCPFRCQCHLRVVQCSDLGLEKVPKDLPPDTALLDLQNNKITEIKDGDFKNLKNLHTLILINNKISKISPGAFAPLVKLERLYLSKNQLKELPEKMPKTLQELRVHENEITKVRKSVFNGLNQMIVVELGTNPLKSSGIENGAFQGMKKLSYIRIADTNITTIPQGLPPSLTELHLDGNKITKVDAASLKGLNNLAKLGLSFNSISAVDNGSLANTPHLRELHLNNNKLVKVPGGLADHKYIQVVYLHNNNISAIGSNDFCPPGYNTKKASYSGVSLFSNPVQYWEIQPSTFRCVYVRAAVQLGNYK

B1: ID1-DBL2Xa (3D7, Baculo) (other)
chain: LSFILNSSDANNPSEKIQKNNDEVCNCNESGIASVEQEQISDPSSNKTCITHSSIKANKKKVCKHVKLGVRENDKDLRVCVIEHTSLSGVENCCCQDFLRILQENCSDNKSGSSSNGSCNNKNQEACEKNLEKVLASLTNCYKCDKCKSEQSKKNNKNWIWKKSSGKEGGLQKEYANTIGLPPRTQSLCLVVCLDEKGKKTQELKNIRTNSELLKEWIIAAFHEGKNLKPSHEKKNDDNGKKLCKALEYSFADYGDLIKGTSIWDNEYTKDLELNLQKIFGKLFRKYIKKNNTAEQDTSYSSLDELRESWWNTNKKYIWLAMKHGAGMNSTTCCGDGSVTGSGSSCDDIPTIDLIPQYLRFLQEWVEHFCKQRQEKVKPVIENCKSCKESGGTCNGECKTECKNKCEVYKKFIEDCKGGDGTAGSSWVKRWDQIYKRYSKYIEDAKRNRKAGTKNCGPSSTTNAA
notes: not shown: V5 and His tag at the C-terminal (modified pAcGP67-A)
B1: no binding.

B2: DBL1X-DBL2Xa (FCR3, Baculo) (other)
chain: HSDSGKYDPCEKKLPPYDDNDQWKCQQNSSDGSGKPENICVPPRRERLCTYNLENLKFDKIRDNNAFLADVLLTARNEGEKIVQNHPDTNSSNVCNALERSFADLADIIRGTDQWKGTNSNLEKNLKQMFAKIRENDKVLQDKYPKDQKYTKLREAWWNANRQKVWEVITCGARSNDLLIKRGWRTSGKSDRKKNFELCRKCGHYEKEVPTKLDYVPQFLRWLTEWIEDFYREKQNLIDDMERHREECTREDHKSKEGTSYCSTCKDKCKKYCECVKKWKTEWENQENKYKDLYEQNKNKTSQKNTSRYDDYVKDFFEKLEANYSSLENYIKGDPYFAEYATKLSFILNPSDANNPSGETANHNDEACNCNESGISSVGQAQTSGPSSNKTCITHSSIKTNKKKECKDVKLGVRENDKDLKICVIEDTSLSGVDNCCCQDLLGILQENCSDNKRGSSSNDSCDNKNQDECQKKLEKVFASLTNGYKCDKCKSGTSRSKKKWIWKKSSGNEEGLQEEYANTIGLPPRTQSLYLGNLPKLENVCEDVKDINFDTKEKFLAGCLIVSFHEGKNLKKRYPQNKNSGNKENLCKALEYSFADYGDLIKGTSIWDNEYTKDLELNLQNNFGKLFGKYIKKNNTAEQDTSYSSLDELRESWWNTNKKYIWTAMKHGAEMNITTCNADGSVTGSGSSCDDIPTIDLIPQYLRFLQEWVENFCEQRQAKVKDVITNCKSCKESGNKCKTECKTKCKDECEKYKKFIEACGTAGGGIGTAGSPWSKRWDQIYKRYSKHIEDAKRNRKAGTKNCGTSSTTNAA
notes: Range derived by me from the FCR3 DBL1X forward primer and the FCR3 DBL2Xa reverse primer (STTNAA), which ends 93 residues before the DBL2Xb border; not shown: V5 and His tag at the C-terminal (modified pAcGP67-A)
B2: no binding.
